Measurements: patent US11702475B2, “Cysteine engineered fibronectin type III domain binding molecules” (Janssen Biotech, Inc., priority 2013, dated 2023)

Key:
[1] = Thermal stability of cysteine-NEM conjugates by DSC; assay type: physicochemical; settings: for First Scan Tm: DSC 25-100 °C, 1 °C per minute; for Second Scan Tm: second identical scan
Description: The thermal stability of cysteine-NEM conjugates was assessed by differential scanning calorimetry (DSC). The only the conjugates tested were those determined to express at high levels, conjugate efficiently, and retain EGFR binding. Additionally, cysteine variants within the BC and FG loops were excluded. Stability data was generated by heating a 400 μL aliquot of the variant from 25° C. to 100° C. at a scan rate of 1° C. per minute in a VP-DSC instrument (MicroCal). A second identical scan was completed on the sample in order to assess the reversibility of thermal folding/unfolding. Data was fitted to a 2-state unfolding model in order to calculate the melting temperature (Table 10).

[2] = Analytical size exclusion chromatography (percent monomer); assay type: physicochemical; settings: NEM-conjugated cysteine variants; SEC, Abs280 monomer region 5.5-6 minutes vs oligomer region 4-5.3 minutes
Summary of the method: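 Purified FN3 domains were run on a Superdex 75 5/150 column in PBS pH 7.4 at 0.3 mL/min with A280 detection. Percent monomer came from integrating the monomer peak (5.5–6 min) against oligomer peaks (4–5.3 min).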

[3] = test system: EGFR-overexpressing human tumor cell line H1573; experiment: Cytotoxicity assay in H1573 cells; assay type: cell-based; settings: cysteine variants conjugated to VC-MMAF, Cell TiterGlo at 70 hours, read-out: IC50
Description: Cell killing was assessed by measuring viability of the EGFR-overexpressing human tumor cell line H1573 following exposure to the cysteine variant-cytotoxin conjugates. Cells were plated in black-well, clear bottomed, tissue culture-treated plates (Falcon 353219) at 7000/well in 100 μL/well of phenol red free RPMI media (Gibco 11835-030) with 5% fetal bovine serum (Gibco). Cells were allowed to attach overnight at 37° C. in a humidified 5% CO2 atmosphere. Medium was aspirated from 96-well plate and cells were treated with 50 uL of fresh media and 50 uL of 2× inhibitor made up in fresh media. Cell viability was determined by an endpoint assay with Cell TiterGlo (Promega) at 70 hours. IC50 values were determined by fitting data to the equation for a sigmoidal dose response with variable slope using GraphPad Prism 5 (GraphPad Software). Table 11 reports IC50 values obtained from analysis of the CellTiter Glo data.
Conjugates consisting of ECB147 cysteine variants, 83v2-cys, or Tencon-cys linked to a cytotoxic tubulin inhibitor from the auristatin family (FIG. 2) were tested for target-dependent cytotoxicity in cancer cells. The inhibitor was linked to the cysteine-containing protein via a non-cleavable PEG4 linker or an enzyme-cleavable valine-citrulline or valine-lysine linker. Cell killing was assessed by measuring viability of the EGFR-overexpressing human tumor cell lines H1573 and A431 as well as the EGFR-negative tumor cell line MDA-MB-435 following exposure to the protein-cytotoxin conjugates using the procedure described in Example 4.

Molecule	First Scan Tm [1]	Second Scan Tm [1]	Percent monomer [2]	IC50 [3]
V41C: cysteine variant of P54AR4-83v2 (SEQ ID NOS: 200 and 238); NEM and VC-MMAF conjugates (conjugate, NEM or vcMMAF conjugate; EGFR binding FN3 domain, NEM and VC-MMAF conjugates) MLPAPKNLVVSEVTEDSARLSWDDPWAFYESFLIQYQESEKCGEAIVLTVPGSERSYDLTGLKPGTEYTVSIYGVHNVYKDTNMRGLPLSAIFTT	71 °C	71 °C	98%	1.13 nM
T59C: cysteine variant of P54AR4-83v2 (SEQ ID NOS: 206 and 244); NEM and VC-MMAF conjugates (conjugate, NEM or vcMMAF conjugate; EGFR binding FN3 domain, NEM and VC-MMAF conjugates) MLPAPKNLVVSEVTEDSARLSWDDPWAFYESFLIQYQESEKVGEAIVLTVPGSERSYDLCGLKPGTEYTVSIYGVHNVYKDTNMRGLPLSAIFTT	67 °C	67 °C	100%	0.44 nM
K62C: cysteine variant of P54AR4-83v2 (SEQ ID 208 and 246); NEM and VC-MMAF conjugates (conjugate, NEM or vcMMAF conjugate; EGFR binding FN3 domain, NEM and VC-MMAF conjugates) MLPAPKNLVVSEVTEDSARLSWDDPWAFYESFLIQYQESEKVGEAIVLTVPGSERSYDLTGLCPGTEYTVSIYGVHNVYKDTNMRGLPLSAIFTT	65 °C	65 °C	95%	1.25 nM
G64C: cysteine variant of P54AR4-83v2 (SEQ ID NOS: 209 and 247); NEM and VC-MMAF conjugates (conjugate, NEM or vcMMAF conjugate; EGFR binding FN3 domain, NEM and VC-MMAF conjugates) MLPAPKNLVVSEVTEDSARLSWDDPWAFYESFLIQYQESEKVGEAIVLTVPGSERSYDLTGLKPCTEYTVSIYGVHNVYKDTNMRGLPLSAIFTT	70 °C	70 °C	100%	0.36 nM
S89C: cysteine variant of P54AR4-83v2 (SEQ ID NOS: 213 and 251); NEM and VC-MMAF conjugates (conjugate, NEM or vcMMAF conjugate; EGFR binding FN3 domain, NEM and VC-MMAF conjugates) MLPAPKNLVVSEVTEDSARLSWDDPWAFYESFLIQYQESEKVGEAIVLTVPGSERSYDLTGLKPGTEYTVSIYGVHNVYKDTNMRGLPLCAIFTT	72 °C	71 °C	96%	0.94 nM
R54C: cysteine variant of P54AR4-83v2 (SEQ ID NOS: 205 and 243); NEM and VC-MMAF conjugates (conjugate, NEM or vcMMAF conjugate; EGFR binding FN3 domain, NEM and VC-MMAF conjugates) MLPAPKNLVVSEVTEDSARLSWDDPWAFYESFLIQYQESEKVGEAIVLTVPGSECSYDLTGLKPGTEYTVSIYGVHNVYKDTNMRGLPLSAIFTT	65 °C	65 °C	96%	0.37 nM
T48C: cysteine variant of P54AR4-83v2 (SEQ ID NOS: 203 and 241); NEM and VC-MMAF conjugates (conjugate, NEM or vcMMAF conjugate; EGFR binding FN3 domain, NEM and VC-MMAF conjugates) MLPAPKNLVVSEVTEDSARLSWDDPWAFYESFLIQYQESEKVGEAIVLCVPGSERSYDLTGLKPGTEYTVSIYGVHNVYKDTNMRGLPLSAIFTT	72 °C	72 °C	90%	0.59 nM
I45C: cysteine variant of P54AR4-83v2 (SEQ ID NOS: 201 and 239); NEM and VC-MMAF conjugates (conjugate, NEM or vcMMAF conjugate; EGFR binding FN3 domain, NEM and VC-MMAF conjugates) MLPAPKNLVVSEVTEDSARLSWDDPWAFYESFLIQYQESEKVGEACVLTVPGSERSYDLTGLKPGTEYTVSIYGVHNVYKDTNMRGLPLSAIFTT	69 °C	68 °C	97%	0.63 nM
L88C: cysteine variant of P54AR4-83v2 (SEQ ID NOS: 212 and 250); NEM and VC-MMAF conjugates (conjugate, NEM or vcMMAF conjugate; EGFR binding FN3 domain, NEM and VC-MMAF conjugates) MLPAPKNLVVSEVTEDSARLSWDDPWAFYESFLIQYQESEKVGEAIVLTVPGSERSYDLTGLKPGTEYTVSIYGVHNVYKDTNMRGLPCSAIFTT	70 °C	70 °C	98%	0.81 nM
A90C: cysteine variant of P54AR4-83v2 (SEQ ID NOS: 214 and 252); NEM and VC-MMAF conjugates (conjugate, NEM or vcMMAF conjugate; EGFR binding FN3 domain, NEM and VC-MMAF conjugates) MLPAPKNLVVSEVTEDSARLSWDDPWAFYESFLIQYQESEKVGEAIVLTVPGSERSYDLTGLKPGTEYTVSIYGVHNVYKDTNMRGLPLSCIFTT	67 °C	67 °C	100%	1 nM
L47C: cysteine variant of P54AR4-83v2 (SEQ ID NOS: 202 and 240); NEM and VC-MMAF conjugates (conjugate, NEM or vcMMAF conjugate; EGFR binding FN3 domain, NEM and VC-MMAF conjugates) MLPAPKNLVVSEVTEDSARLSWDDPWAFYESFLIQYQESEKVGEAIVCTVPGSERSYDLTGLKPGTEYTVSIYGVHNVYKDTNMRGLPLSAIFTT	67 °C	67 °C	100%	1.03 nM
S70C: cysteine variant of P54AR4-83v2 (SEQ ID NOS: 211 and 249); NEM and VC-MMAF conjugates (conjugate, NEM or vcMMAF conjugate; EGFR binding FN3 domain, NEM and VC-MMAF conjugates) MLPAPKNLVVSEVTEDSARLSWDDPWAFYESFLIQYQESEKVGEAIVLTVPGSERSYDLTGLKPGTEYTVCIYGVHNVYKDTNMRGLPLSAIFTT	73 °C	72 °C	100%	1.14 nM
G60C: cysteine variant of P54AR4-83v2 (SEQ ID NOS: 207 and 245); NEM and VC-MMAF conjugates (conjugate, NEM or vcMMAF conjugate; EGFR binding FN3 domain, NEM and VC-MMAF conjugates) MLPAPKNLVVSEVTEDSARLSWDDPWAFYESFLIQYQESEKVGEAIVLTVPGSERSYDLTCLKPGTEYTVSIYGVHNVYKDTNMRGLPLSAIFTT	66 °C	66 °C	100%	1 nM
Y72C: cysteine variant of P54AR4-83v2; NEM and VC-MMAF conjugates (conjugate, left off: small tags and cut ends, cysteine variant of P54AR4-83v2; NEM and VC-MMAF conjugates) LPAPKNLVVSEVTEDSARLSWDDPWAFYESFLIQYQESEKVGEAIVLTVPGSERSYDLTGLKPGTEYTVSICGVHNVYKDTNMRGLPLSAIFTT	70 °C	69 °C	100%	1.85 nM
V74C: cysteine variant of P54AR4-83v2; NEM and VC-MMAF conjugates (conjugate, left off: small tags and cut ends, cysteine variant of P54AR4-83v2; NEM and VC-MMAF conjugates) LPAPKNLVVSEVTEDSARLSWDDPWAFYESFLIQYQESEKVGEAIVLTVPGSERSYDLTGLKPGTEYTVSIYGCHNVYKDTNMRGLPLSAIFTT	68 °C	67 °C	100%	3.13 nM
